This note sets out measurements from article PMC2175287 (The Journal of Cell Biology, 2000).

As usually defined, the Kd is the concentration at which binding is half-saturated. Read a high Kd as weaker binding.

The target of one assay is Mtr10p (UniProt Q99189). Put plainly: GST pull-down, S-tag blot, no extract. The conditions noted are these: reference: mock-phosphorylated GST-Npl3p; sites S411.
Another assay has as its target T1, Mtr10-Protein A (S. cerevisiae, UniProt Q99189 1-972).
T1 sequence (looked up): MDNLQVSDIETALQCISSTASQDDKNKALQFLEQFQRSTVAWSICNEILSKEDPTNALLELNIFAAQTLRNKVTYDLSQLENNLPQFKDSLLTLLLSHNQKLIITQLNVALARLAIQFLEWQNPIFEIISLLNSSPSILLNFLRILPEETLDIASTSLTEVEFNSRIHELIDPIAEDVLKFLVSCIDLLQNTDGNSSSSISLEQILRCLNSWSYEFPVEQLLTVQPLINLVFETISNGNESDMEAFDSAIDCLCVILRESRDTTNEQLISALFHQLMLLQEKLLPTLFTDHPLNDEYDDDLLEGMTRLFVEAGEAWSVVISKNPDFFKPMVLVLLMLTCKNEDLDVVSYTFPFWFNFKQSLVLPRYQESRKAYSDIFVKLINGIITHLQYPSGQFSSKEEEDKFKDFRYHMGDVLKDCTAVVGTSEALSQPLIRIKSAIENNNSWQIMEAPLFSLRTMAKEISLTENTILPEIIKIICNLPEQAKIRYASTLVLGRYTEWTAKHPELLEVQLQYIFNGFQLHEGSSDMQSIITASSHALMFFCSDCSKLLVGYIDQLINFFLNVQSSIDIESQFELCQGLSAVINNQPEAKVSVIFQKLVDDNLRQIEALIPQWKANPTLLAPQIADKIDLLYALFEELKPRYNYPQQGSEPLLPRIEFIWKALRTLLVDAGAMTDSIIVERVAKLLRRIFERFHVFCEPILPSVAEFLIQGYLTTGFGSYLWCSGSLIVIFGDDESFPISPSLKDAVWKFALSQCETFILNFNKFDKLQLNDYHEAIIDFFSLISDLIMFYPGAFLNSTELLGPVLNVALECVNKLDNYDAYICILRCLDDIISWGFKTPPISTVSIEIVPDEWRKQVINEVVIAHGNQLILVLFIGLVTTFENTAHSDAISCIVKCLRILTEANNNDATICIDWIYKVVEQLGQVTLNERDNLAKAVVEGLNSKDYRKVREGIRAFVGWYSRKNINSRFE
Put plainly: co-IP.

The target of assay [1] is T2, in vitro-translated 35S-labeled Mtr10p (S. cerevisiae, UniProt Q99189 1-972, 35S-labeled).
T2 sequence (looked up): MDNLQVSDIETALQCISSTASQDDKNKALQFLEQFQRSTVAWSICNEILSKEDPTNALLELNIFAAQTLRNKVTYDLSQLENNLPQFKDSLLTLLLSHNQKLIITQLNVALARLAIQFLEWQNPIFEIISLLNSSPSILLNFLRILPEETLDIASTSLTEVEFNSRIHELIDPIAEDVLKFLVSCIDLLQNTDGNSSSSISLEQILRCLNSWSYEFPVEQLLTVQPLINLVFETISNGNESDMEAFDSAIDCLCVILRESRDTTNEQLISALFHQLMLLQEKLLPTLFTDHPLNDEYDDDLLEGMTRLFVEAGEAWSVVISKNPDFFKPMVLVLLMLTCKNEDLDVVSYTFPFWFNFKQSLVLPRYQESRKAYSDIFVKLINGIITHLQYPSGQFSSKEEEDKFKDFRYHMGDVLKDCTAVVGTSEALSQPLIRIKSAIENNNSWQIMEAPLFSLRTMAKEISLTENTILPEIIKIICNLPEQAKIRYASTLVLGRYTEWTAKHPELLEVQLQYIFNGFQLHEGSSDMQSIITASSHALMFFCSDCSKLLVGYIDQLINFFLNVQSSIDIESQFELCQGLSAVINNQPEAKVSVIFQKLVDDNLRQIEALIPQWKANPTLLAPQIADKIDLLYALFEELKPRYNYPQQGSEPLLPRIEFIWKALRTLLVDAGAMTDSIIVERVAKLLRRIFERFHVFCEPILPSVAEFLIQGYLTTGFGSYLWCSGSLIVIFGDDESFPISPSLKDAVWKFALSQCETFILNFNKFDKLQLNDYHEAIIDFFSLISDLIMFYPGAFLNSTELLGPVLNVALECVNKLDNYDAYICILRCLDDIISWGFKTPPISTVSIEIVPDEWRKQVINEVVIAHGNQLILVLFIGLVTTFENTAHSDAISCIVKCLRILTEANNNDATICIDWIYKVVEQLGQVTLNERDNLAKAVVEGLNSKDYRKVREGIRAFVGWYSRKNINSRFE

“Npl3p (from UniProt Q01560) Sky1p-phosphorylated GST-Npl3p”: the “binding against the reference” value with Mtr10p is given as “stronger”.

B1: Npl3p (endogenous) (natural protein, S. cerevisiae (endogenous in yeast), UniProt Q01560 1-414, looked up)
chain: MSEAQETHVEQLPESVVDAPVEEQHQEPPQAPDAPQEPQVPQESAPQESAPQEPPAPQEQNDVPPPSNAPIYEGEESHSVQDYQEAHQHHQPPEPQPYYPPPPPGEHMHGRPPMHHRQEGELSNTRLFVRPFPLDVQESELNEIFGPFGPMKEVKILNGFAFVEFEEAESAAKAIEEVHGKSFANQPLEVVYSKLPAKRYRITMKNLPEGCSWQDLKDLARENSLETTFSSVNTRDFDGTGALEFPSEEILVEALERLNNIEFRGSVITVERDDNPPPIRRSNRGGFRGRGGFRGGFRGGFRGGFSRGGFGGPRGGFGGPRGGYGGYSRGGYGGYSRGGYGGSRGGYDSPRGGYDSPRGGYSRGGYGGPRNDYGPPRGSYGGSRGGYDGPRGDYGPPRDAYRTRDAPRERSPTR
Take B1: the “fold reduction of co-precipitated Npl3p in sky1Δ against wild-type yeast” value with Mtr10-Protein A turned out to be 3 fold.

B2: GST-Npl3p phosphorylated by Sky1p (natural protein, S. cerevisiae, UniProt Q01560 1-414, looked up)
chain: MSEAQETHVEQLPESVVDAPVEEQHQEPPQAPDAPQEPQVPQESAPQESAPQEPPAPQEQNDVPPPSNAPIYEGEESHSVQDYQEAHQHHQPPEPQPYYPPPPPGEHMHGRPPMHHRQEGELSNTRLFVRPFPLDVQESELNEIFGPFGPMKEVKILNGFAFVEFEEAESAAKAIEEVHGKSFANQPLEVVYSKLPAKRYRITMKNLPEGCSWQDLKDLARENSLETTFSSVNTRDFDGTGALEFPSEEILVEALERLNNIEFRGSVITVERDDNPPPIRRSNRGGFRGRGGFRGGFRGGFRGGFSRGGFGGPRGGFGGPRGGYGGYSRGGYGGYSRGGYGGSRGGYDSPRGGYDSPRGGYSRGGYGGPRNDYGPPRGSYGGSRGGYDGPRGDYGPPRDAYRTRDAPRERSPTR
modifications: phosphoserine at 411 (single site of Sky1p)
For B2, in assay [1], the Kd was 30 nM.
